A value given as a limit tells only on which side of the number the result lay.

The chains are these.
B1: ADI-10159 IgG (antibody, V domains shown)
VH: EVQLVESGGGLVQPGGSLRLSCAASGFTFSSYGMSWVRQAPGKGLEWVANIKQDGSEKYYVDSVKGRFTISRDNAKNSLYLQMNSLRAEDTAVYYCAREGGPYYDSSGYFVYYGMDVWGQGTTVTVSS
VL: DIQMTQSPSTLSASVGDRVTITCRASQSISSWLAWYQQKPGKAPKLLIYDASSLESGVPSRFSGSGSGTEFTLTISSLQPDDFATYYCQQYESFPTFGGGTKVEIK
notes: IgG; also called Ab1; G59
B2: ADI-11776 IgG (antibody, V domains shown)
VH: EVQLLESGGGLVQPGGSLRLSCAASGFTFSKYTMSWVRQAPGKGLEWVSAIVGSGESTYFADSVKGRFTISRDNSKNTLYLQMNSLRAEDTAVYYCAREGGPYYDSSGYFVYYGMDVWGQGTTVTVSS
VL: DIQMTQSPSTLSASVGDRVTITCRASQSISSWLAWYQQKPGKAPKLLIYKASSLESGVPSRFSGSGSGTEFTLTISSLQPDDFATYYCQQYDDLPTFGGGTKVEIK
notes: IgG; also called Ab3; H76
B3: ADI-11819 IgG (antibody, V domains shown)
VH: EVQLVESGGGLVKPGGSLRLSCAASGFTFSSYAMSWVRQAPGKGLEWVSSISSSSEGIYYADSVKGRFTISRDNAKNSLYLQMNSLRAEDTAVYYCAREGGPYYDSSGYFVYYGMDVWGQGTTVTVSS
VL: DIQMTQSPSTLSASVGDRVTITCRASNSISSWLAWYQQKPGKAPKLLIYEASSTKSGVPSRFSGSGSGTEFTLTISSLQPDDFATYYCQQYDDLPTFGGGTKVEIK
notes: IgG; also called Ab8
B4: ADI-11828 IgG (antibody, V domains shown)
VH: EVQLVESGGGLVQPGGSLRLSCAASGFTFSSYWMSWVRQAPGKGLEWVANINQDGSEVYYVDSVKGRFTISRDNAKNSLYLQMNSLRAEDTAVYYCARDVGPGIAYQGHFDYWGQGTLVTVSS
VL: DIQMTQSPSSLSASVGDRVTITCRASQSIYYYLNWYQQKPGKAPKLLIYAASSRQSGVPSRFSGSGSGTDFTLTISSLQPEDFATYYCQQVYDTPLTFGGGTKVEIK
notes: IgG; also called Ab27
B5: ADI-11826 IgG (antibody, V domains shown)
VH: EVQLVESGGGLVQPGGSLRLSCAASGFTFPGYWMSWVRQAPGKGLEWVANINQDGSEVYYVDSVKGRFTISRDNAKNSLYLQMNSLRAEDTAVYYCAREANYYGNVGDDYWGQGTLVTVSS
VL: DIQMTQSPSSLSASVGDRVTITCRASQSIYNYLNWYQQKPGKAPKLLIYAASSTQSGVPSRFSGSGSGTDFTLTISSLQPEDFATYYCQQAFHVPITFGGGTKVEIK
notes: IgG; also called Ab26
B6: ADI-10163 IgG (antibody, V domains shown)
VH: QVQLQESGPGLVKPSQTLSLTCTVSGGSISSGGYYWSWIRQHPGKGLEWIGSIYYSGSTYYNPSLKSRVTISVDTSKNQFSLKLSSVTAADTAVYYCARDRLDYSYNYGMDVWGQGTTVTVSS
VL: DIQMTQSPSSLSASVGDRVTITCRASQSISSYLNWYQQKPGKAPKLLIYGASSLQSGVPSRFSGSGSGTDFTLTISSLQPEDFATYYCQQVYSAPFTFGGGTKVEIK
notes: IgG; also called Ab17
B7: ADI-10160 IgG (antibody, V domains shown)
VH: EVQLVESGGGLVQPGGSLRLSCAASGFTFSSYWMSWVRQAPGKGLEWVANINQDGSEKYYVDSVKGRFTISRDNAKNSLYLQMNSLRAEDTAVYYCAREANYYGNVGDDYWGQGTLVTVSS
VL: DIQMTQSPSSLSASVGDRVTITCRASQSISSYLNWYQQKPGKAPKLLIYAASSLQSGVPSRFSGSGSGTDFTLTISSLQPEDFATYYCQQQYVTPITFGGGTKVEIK
notes: IgG; also called Ab15
B8: ADI-11830 IgG (antibody, V domains shown)
VH: EVQLVESGGGLVQPGGSLRLSCAASGFTFSSYWMSWVRQAPGKGLEWVANINTDGSEVYYVDSVKGRFTISRDNAKNSLYLQMNSLRAEDTAVYYCARDVGPGIAYQGHFDYWGQGTLVTVSS
VL: DIQMTQSPSSLSASVGDRVTITCRASQVIYSYLNWYQQKPGKAPKLLIYAASSLKSGVPSRFSGSGSGTDFTLTISSLQPEDFATYYCQQVYDTPLTFGGGTKVEIK
notes: IgG; also called Ab9
B9: ADI-11825 IgG (antibody, V domains shown)
VH: EVQLVESGGGLVQPGGSLRLSCAASGFTFGGYWMSWVRQAPGKGLEWVANINQDGSEEYYVDSVKGRFTISRDNAKNSLYLQMNSLRAEDTAVYYCAREANYYGNVGDDYWGQGTLVTVSS
VL: DIQMTQSPSSLSASVGDRVTITCRASQSIYNYLNWYQQKPGKAPKLLIYAASNLHSGVPSRFSGSGSGTDFTLTISSLQPEDFATYYCQQAFHVPITFGGGTKVEIK
notes: IgG; also called Ab25
B10: ADI-11807 IgG (antibody, V domains shown)
VH: EVQLVESGGGLVQPGGSLRLSCAASGFTFGSYWMSWVRQAPGKGLEWVATIKQDGSEKSYVDSVKGRFTISRDNAKNSLYLQMNSLRAEDTAVYYCARPLNAGELDVWGQGTMVTVSS
VL: DIQMTQSPSTLSASVGDRVTITCRASQSISSWLAWYQQKPGKAPKLLIYEASSLESGVPSRFSGSGSGTEFTLTISSLQPDDFATYYCQQSQSYPPITFGGGTKVEIK
notes: IgG; also called Ab5; I07
B11: ADI-11809 IgG (antibody, V domains shown)
VH: EVQLVESGGGLVQPGGSLRLSCAASGFTFPSYWMSWVRQAPGKGLEWVATIKRDGSEKGYVDSVKGRFTISRDNAKNSLYLQMNSLRAEDTAVYYCARPLNAGELDVWGQGTMVTVSS
VL: DIQMTQSPSTLSASVGDRVTITCRASQSISSWLAWYQQKPGKAPKLLIYEASSLESGVPSRFSGSGSGTEFTLTISSLQPDDFATYYCQQSQSYPPITFGGGTKVEIK
notes: IgG; also called Ab6
B12: ADI-11812 IgG (antibody, V domains shown)
VH: QVQLVQSGAEVKKPGASVKVSCKASGYTFEIYYMHWVRQAPGQGLEWMGIINPSSGSTVYAQKFQGRVTMTRDTSTSTVYMELSSLRSEDTAVYYCARGAGYDDEDMDVWGKGTTVTVSS
VL: DIQMTQSPSSVSASVGDRVTITCRASQGIDSWLAWYQQKPGKAPKLLIYAASSLQSGVPSRFSGSGSGTDFTLTISSLQPEDFATYYCQQAHSYPLTFGGGTKVEIK
notes: IgG; also called Ab24
B13: ADI-10177 IgG (antibody, V domains shown)
VH: EVQLVESGGGLVQPGGSLRLSCAASGFTFSSYWMSWVRQAPGKGLEWVANIKQDGSEKYYVDSVKGRFTISRDNAKNSLYLQMNSLRAEDTAVYYCARPLNAGELDVWGQGTMVTVSS
VL: DIQMTQSPSTLSASVGDRVTITCRASQSISSWLAWYQQKPGKAPKLLIYEASSLESGVPSRFSGSGSGTEFTLTISSLQPDDFATYYCQQLESYPLTFGGGTKVEIK
notes: IgG; also called Ab2
B14: ADI-10161 IgG (antibody, V domains shown)
VH: EVQLVESGGGLVQPGGSLRLSCAASGFTFSSYWMSWVRQAPGKGLEWVANINQDGSEKYYVDSVKGRFTISRDNAKNSLYLQMNSLRAEDTAVYYCAREGGDSWYHAFDIWGQGTMVTVSS
VL: DIQMTQSPSSVSASVGDRVTITCRASQGISSWLAWYQQKPGKAPKLLIYAASNLQSGVPSRFSGSGSGTDFTLTISSLQPEDFATYYCQQKLSLPLTFGGGTKVEIK
notes: IgG; also called Ab16
B15: ADI-11815 IgG (antibody, V domains shown)
VH: QVQLVQSGAEVKKPGASVKVSCKASGYTFGTYYMHWVRQAPGQGLEWMGIINPSRGSTVYAQKFQGRVTMTRDTSTSTVYMELSSLRSEDTAVYYCARGAGYDDEDMDVWGKGTTVTVSS
VL: DIQMTQSPSSVSASVGDRVTITCRASQGIDSWLAWYQQKPGKAPKLLIYAASSLQSGVPSRFSGSGSGTDFTLTISSLQPEDFATYYCQQAHSYPLTFGGGTKVEIK
notes: IgG; also called Ab7
B16: ADI-11801 IgG (antibody, V domains shown)
VH: QVQLVQSGAEVKKPGASVKVSCKASGYTFSDYYMHWVRQAPGQGLEWMGMINPSWGSTSYAQKFQGRVTMTRDTSTSTVYMELSSLRSEDTAVYYCAREAADGFVGERYFDLWGRGTLVTVSS
VL: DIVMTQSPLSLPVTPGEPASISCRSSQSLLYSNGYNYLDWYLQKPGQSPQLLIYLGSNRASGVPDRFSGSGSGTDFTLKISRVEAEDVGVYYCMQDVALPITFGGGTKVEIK
notes: IgG; also called Ab4
B17: ADI-10173 IgG (antibody, V domains shown)
VH: QVQLVQSGAEVKKPGASVKVSCKASGYTFTSYYMHWVRQAPGQGLEWMGIINPSGGSTTYAQKFQGRVTMTRDTSTSTVYMELSSLRSEDTAVYYCAREAADGFVGERYFDLWGRGTLVTVSS
VL: not shown
notes: IgG; also called Ab22
B18: ADI-11802 IgG (antibody, V domains shown)
VH: QVQLVQSGAEVKKPGASVKVSCKASGYTFSGYYMHWVRQAPGQGLEWMGMINPYGGSTRYAQKFQGRVTMTRDTSTSTVYMELSSLRSEDTAVYYCAREAADGFVGERYFDLWGRGTLVTVSS
VL: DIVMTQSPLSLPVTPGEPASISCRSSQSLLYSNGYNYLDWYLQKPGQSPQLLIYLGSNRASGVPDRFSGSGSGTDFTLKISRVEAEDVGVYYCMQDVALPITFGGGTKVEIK
notes: IgG; also called Ab23
B19: ADI-10164 IgG (antibody, V domains shown)
VH: QVQLQESGPGLVKPSETLSLTCAVSGYSISSGYYWGWIRQPPGKGLEWIGSIYHSGSTNYNPSLKSRVTISVDTSKNQFSLKLSSVTAADTAVYYCARLPPWFGFSYFDLWGRGTLVTVSS
VL: EIVLTQSPATLSLSPGERATLSCRASQSVSSYLAWYQQKPGQAPRLLIYDASNRATGIPARFSGSGSGTDFTLTISSLEPEDFAVYYCQQVDNYPPTFGGGTKVEIK
notes: IgG; also called Ab18
B20: ADI-10157 IgG (antibody, V domains shown)
VH: QVQLQESGPGLVKPSETLSLTCTVSGGSISSYYWSWIRQPPGKGLEWIGSIYYSGSTNYNPSLKSRVTISVDTSKNQFSLKLSSVTAADTAVYYCARVGGVYSTIETYGMDVWGQGTTVTVSS
VL: EIVMTQSPATLSVSPGERATLSCRASQSVSSNLAWYQQKPGQAPRLLIYGASTRATGIPARFSGSGSGTEFTLTISSLQSEDFAVYYCQQYTVYPPTFGGGTKVEIK
notes: IgG; also called Ab13

The test addresses T1, human CD33 extracellular domain (human, UniProt P20138 18-259).
T1 construct: soluble monomeric ECD; also called human CD33 ECD; hCD33
Nature of the test: BLI Octet, IgG loaded.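 Further: IgGs captured on AHC biosensors, exposed to 100 nM antigen for 3 min association then 3 min dissociation in buffer, kinetics fitted with a 1:1 binding model.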
Protocol: Briefly, ForteBio affinity measurements were performed by loading IgGs on-line onto AHC sensors. Sensors were equilibrated off-line in assay buffer for 30 min and then monitored on-line for 60 seconds for baseline establishment. Sensors with loaded IgGs were exposed to 100 nM antigen for 3 minutes, and afterwards were transferred to assay buffer for 3 min for off-rate measurement. All kinetics were analyzed using the 1:1 binding model.
Consider B1, for which the equilibrium dissociation constant (Kd) is at most 0.575 nM, the koff is at most 0.0002 s⁻¹ and the association rate constant (kon) was 348000 M⁻¹ s⁻¹.
Consider B2, for which the dissociation constant Kd turned out to be 0.294 nM, the koff came out at 0.0002 s⁻¹ and the kon was determined as 679000 M⁻¹ s⁻¹.
B3 showed a dissociation constant Kd of 0.243 nM, a koff of 0.0002 s⁻¹ and an association rate constant (kon) of 824000 M⁻¹ s⁻¹.
For B4, the Kd was 0.81 nM, the off-rate (koff) was found to be 0.000533 s⁻¹ and the kon came to 658000 M⁻¹ s⁻¹.
For B5, in that order: 0.393 nM, 0.000243 s⁻¹ and 619000 M⁻¹ s⁻¹.
On to B6, for which binding was put at a Kd of 6.8 nM.
In turn, B7 showed a Kd of 5.1 nM, an off-rate (koff) of 0.00325 s⁻¹ and an on-rate (kon) of 638000 M⁻¹ s⁻¹.
In turn, B8 had a Kd of 1.2 nM, a koff of 0.000923 s⁻¹ and a kon of 770000 M⁻¹ s⁻¹.
The molecule B9 yielded a Kd of 0.54 nM, an off-rate constant (koff) of 0.000376 s⁻¹ and a kon of 696000 M⁻¹ s⁻¹.
For B10, in that order: 0.307 nM, 0.0002 s⁻¹ and 651000 M⁻¹ s⁻¹.
For B11, binding was put at a Kd of 0.313 nM, the off-rate (koff) is 0.0002 s⁻¹ and the on-rate (kon) worked out at 638000 M⁻¹ s⁻¹.
For B12, in that order: 1.91 nM, 0.000315 s⁻¹ and 166000 M⁻¹ s⁻¹.
Molecule B13 yielded a Kd of 3.6 nM, an off-rate (koff) of 0.00214 s⁻¹ and a kon of 601000 M⁻¹ s⁻¹.
In turn, B14 returned a Kd of 3.7 nM, a koff of 0.00217 s⁻¹ and a kon of 587000 M⁻¹ s⁻¹.
With B15, the affinity, expressed as Kd, was 1.44 nM; the koff came out at 0.000229 s⁻¹; the on-rate (kon) came to 159000 M⁻¹ s⁻¹.
The molecule B16 yielded a dissociation constant (Kd) of 0.457 nM, a koff of 0.0002 s⁻¹ and a kon of 438000 M⁻¹ s⁻¹.
For B17, binding was put at a Kd of 9.7 nM. This counts as single-digit nanomolar.
Molecule B18 yielded a Kd of 0.453 nM, an off-rate (koff) of 0.0002 s⁻¹ and an on-rate (kon) of 441000 M⁻¹ s⁻¹.
B19 came in with a Kd of 4.3 nM, a koff of 0.00148 s⁻¹ and a kon of 344000 M⁻¹ s⁻¹.
As for B20, binding was put at a Kd of 4.2 nM, the dissociation rate constant (koff) was found to be 0.000336 s⁻¹ and the kon is 79900 M⁻¹ s⁻¹.

The values are drawn from patent US20220380459A1 (DRAGONFLY THERAPEUTICS, published 2022).
